Source: US20120276000A1

Molecular target: human CLEC14A (endogenous, in HUVECs) (human) (UniProt Q86T13)
Assay: cell-based or functional assay

Sequence of UniProt Q86T13 (Q86T13 22-490): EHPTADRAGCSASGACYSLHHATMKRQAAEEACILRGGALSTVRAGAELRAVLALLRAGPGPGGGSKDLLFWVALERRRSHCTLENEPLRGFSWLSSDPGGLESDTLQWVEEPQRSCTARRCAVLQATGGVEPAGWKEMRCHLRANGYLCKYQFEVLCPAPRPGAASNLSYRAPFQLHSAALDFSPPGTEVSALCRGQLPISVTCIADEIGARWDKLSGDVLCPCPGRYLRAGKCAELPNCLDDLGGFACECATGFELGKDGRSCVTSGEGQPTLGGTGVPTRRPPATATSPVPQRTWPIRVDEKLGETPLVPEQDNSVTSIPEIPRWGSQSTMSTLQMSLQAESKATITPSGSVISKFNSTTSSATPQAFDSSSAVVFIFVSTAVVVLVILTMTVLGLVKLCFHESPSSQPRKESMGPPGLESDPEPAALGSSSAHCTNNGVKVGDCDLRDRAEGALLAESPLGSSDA

wound area remaining open at 12 h, HUVEC scratch wound healing assay, 10 µg/ml antibody: 25%
B1: anti-CLEC14A monoclonal antibody CRT-3 (antibody, from another filing, IgG1, V domains shown)
VH: EVQLQQSGTVLARPGASVKMSCKASGYTFTSYWMHWVKQRPGQGLEWIGAIYPGNSDTSYNQKFKGKAKLTAVTSTSTAYMELSSLTNEDSAVFYCTHYYGSDYAMDYWGQGTSVTV
VL: QIVLTQSPAIMSASLGERVTMTCTASSSVSSSYLHWYQQKPGSSPKLWIYSTSNLASGVPARFSGSGSGTSYSLTISSMEAEDAATYYCHQYHRSPRTFGGGTKLEIKR
